Laboratory results: the supplement of paper PMC12042874
± gives the uncertainty stated by the source.

Assay: amyloid nucleation score (Sup35N fusion, yeast selection) (log enrichment); library NNK1; higher = more nucleation; inactive = no reads after selection
Summary of the method: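 The nucleation score is the DiMSum log enrichment of output over input reads, centred on the mode score of non-aggregating sequences. Only sequences with 100 or more input reads were scored, using Illumina sequencing of input and output plasmid inserts. Psi-negative yeast expressing Sup35N fused to peptides of 20 random codons were induced 24 hours with 100 μM copper sulfate and grown 7 days at 30°C on medium lacking adenine and uracil.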
In the case of QNDTYLI, the amyloid nucleation score is reported as 0.022 ± 1.1.
Work on IWRTLWMWSVGTSTNPVHSL yielded an amyloid nucleation score of -0.088 ± 0.49.
Work on ASIKTRTSFRVKVWYWVRNL yielded an amyloid nucleation score of -0.598 ± 1.7.
For FKVNRHLPELHLCKGTEWKL, the amyloid nucleation score was “inactive”.
Work on VYFIRIHLLFRHRTGGICNT yielded an amyloid nucleation score of 1.06 ± 0.72.
Substance FRSSFGMTHYWEWRASSGRN has an amyloid nucleation score of 0.882 ± 0.2.
Substance TRKPEPINPQSIWSTVLQHE has an amyloid nucleation score of 0.54 ± 0.48.
Work on SGGELVVLIYMNMGASGWAP yielded an amyloid nucleation score of -0.756 ± 0.56.
Work on GGFAILNAREEHWGLKGSSM yielded an amyloid nucleation score of -0.491 ± 0.55.
LKVPCL gave an amyloid nucleation score of -0.067 ± 0.59.
For TFPGDGRFPKVSKVYDPVLE, the amyloid nucleation score was “inactive”.
MSIAMDGYFYPSSAAPFFIT showed an amyloid nucleation score of -0.156 ± 0.42.
For EALNPVVLPSTN, the amyloid nucleation score was 1.55 ± 0.14.
With GLGVIVVCPVCGSKGVCGKW the amyloid nucleation score was -0.914 ± 1.4.
With LHCYFAFDLLWIALRTTVRI the amyloid nucleation score was -0.457 ± 1.
For GLNLNRFWRLGATFILYLQT, the amyloid nucleation score was 1.19 ± 0.54.
For MGLSNSDADGRTLRNEHVKS, the amyloid nucleation score was -1.35 ± 2.1.
AWDVLMHM showed an amyloid nucleation score of 0.248 ± 0.49.
LDDLPTILGVSEHSRSFVKV showed an amyloid nucleation score of -0.324 ± 0.61.
For VSVKSNGWMSWWLSWQVPKH, the amyloid nucleation score was -0.147 ± 0.63.
In the case of GPTRLDAEG, the amyloid nucleation score is reported as -0.54 ± 0.87.
Work on SLKMMIFQRGFYTSIG yielded an amyloid nucleation score of 1.75 ± 0.13.
With EYSADTIGVIGLGTAPDERR the amyloid nucleation score was -0.239 ± 0.84.
SGSSTVWCAYRMTGQPPGRT showed an amyloid nucleation score of 1.37 ± 0.51.
Substance IDYRIDCVCFLCSVREEAYR has an amyloid nucleation score of 7.278 ± 0.047.
Substance HSMLI has an amyloid nucleation score of 0.539 ± 0.61.
In the case of GIRFLWPFLIPRLHKVIARR, the amyloid nucleation score is reported as “inactive”.
RRVGLVASDTGRGEWWTRSM gave an amyloid nucleation score of -0.015 ± 0.55.
With SHMDHGRQRWCSN the amyloid nucleation score was 0.83 ± 0.88.
In the case of SRYYASYFGIG, the amyloid nucleation score is reported as 0.034 ± 0.97.
Substance QLRHLHSNVLLRDIWLGFKF has an amyloid nucleation score of -1.01 ± 1.7.
With YFKLIVLVGLNAREWRAAMV the amyloid nucleation score was -0.221 ± 0.4.
Work on TLDKDLDMGRP yielded an amyloid nucleation score of 0.625 ± 0.56.
Work on SLFMSYLCRLVHRLLSRKIG yielded an amyloid nucleation score of -0.172 ± 0.28.
In the case of MTPTTWLYPVILTSSLS, the amyloid nucleation score is reported as 0.44 ± 0.84.
For RVETYRSYGAIIEVNRPVYM, the amyloid nucleation score was 0.625 ± 0.6.
NFTICLGRSTEHPGIRFDAG gave an amyloid nucleation score of -0.207 ± 1.9.
Work on ILEEYYLCIWLEVAWHICHA yielded an amyloid nucleation score of -0.571 ± 0.8.
In the case of LASFMQRRAYSDGHDMLVRM, the amyloid nucleation score is reported as “inactive”.
VSQTPWTLYLN gave an amyloid nucleation score of 0.229 ± 0.26.
QLTPTLCDRSRCCPGGLFVY gave an amyloid nucleation score of 0.631 ± 0.58.
With SCAWRYNICTLISVRWVCK the amyloid nucleation score was 0.756 ± 0.34.
For DCGAWGHTLVSWSKYLGKSF, the amyloid nucleation score was 3.64 ± 0.092.
Substance HGFNPNWGSRVKGSMVRV has an amyloid nucleation score of -0.044 ± 0.47.
RAKICFVRQGRGFIMHRLLA showed an amyloid nucleation score of 1.39 ± 0.23.
Work on IGRMSYWGCRTLNNSPCGKF yielded an amyloid nucleation score of -1.22 ± 1.7.
ENLGGWAPTLCYRRT showed an amyloid nucleation score of 0.187 ± 0.4.
For LGFVDISGSYEVLGGYPSLR, the amyloid nucleation score was 0.031 ± 1.2.
Substance SAAPRFCSYSSFFALSNLSI has an amyloid nucleation score of 0.615 ± 0.3.
Substance IKFERAIRSSVGKQRC has an amyloid nucleation score of 0.784 ± 0.71.
WYHSYCVVHSFWYATSPLNS showed an amyloid nucleation score of -0.259 ± 0.33.
FALIRN gave an amyloid nucleation score of -0.368 ± 1.7.
For TQKHCY, the amyloid nucleation score was 0.326 ± 0.33.
Work on NYHMIVRLASLKKQW yielded an amyloid nucleation score of 0.109 ± 0.46.
Work on TSVVVRSPRGVVEPKHYFCI yielded an amyloid nucleation score of -1.19 ± 2.4.
For DKRECFGLDLEIWSMVVWMW, the amyloid nucleation score was 0.611 ± 0.8.
PFRSFLCRVIRALGLY gave an amyloid nucleation score of 0.212 ± 0.95.
Substance LFMLWLCCIKVFNKGCFGRS has an amyloid nucleation score of -0.297 ± 0.26.
With NNPEINFYKVWAIKSYF the amyloid nucleation score was 2.83 ± 0.13.
Substance FGLHCINLNWVEKWFDIDGP has an amyloid nucleation score of -0.245 ± 0.84.
Substance DWLHQSRL has an amyloid nucleation score of 0.239 ± 0.42.
Substance TFYSCHP has an amyloid nucleation score of 1.49 ± 0.37.
GIAVGS showed an amyloid nucleation score of 0.413 ± 0.49.
RKYKRTVMDMKCYWQGVWSV showed an amyloid nucleation score of 0.136 ± 0.5.
ILTVLLISMWVMNHLIFLGL showed an amyloid nucleation score of -0.563 ± 1.4.
With SMFKGTIWRQHSLS the amyloid nucleation score was 0.618 ± 0.85.
Work on TCRKFKYPL yielded an amyloid nucleation score of 0.372 ± 0.29.
Work on YWPGLGFMFDNYSI yielded an amyloid nucleation score of 0.555 ± 0.71.
With WNRYWNLFYRGTLDSTAIGS the amyloid nucleation score was -1.76 ± 2.4.
FCTHHWG gave an amyloid nucleation score of -0.382 ± 0.6.
Work on HGNYTHQMTPAELFLRHMRF yielded an amyloid nucleation score of -0.991 ± 2.4.
For VWSILCMCNRSHLWVKSSKR, the amyloid nucleation score was 0.988 ± 0.35.
Substance VRSFNRGFKMHTYIPTHFLW has an amyloid nucleation score of -0.55 ± 0.26.
For ESAHNWWNPVSSYL, the amyloid nucleation score was 1.06 ± 0.58.
SDELWLLQFPVLNNKLWEK gave an amyloid nucleation score of 0.726 ± 1.1.
NGNDDLSQTTEVKGYVGATL showed an amyloid nucleation score of -0.3 ± 0.37.
With WLTRFRRGAACRDLLWRGER the amyloid nucleation score was -0.096 ± 1.4.
For NNSHFQSNGNIWSNNSSPSA, the amyloid nucleation score was “inactive”.
Substance SHLGVVCNRLVYERETNVST has an amyloid nucleation score of -0.191 ± 0.29.
Work on FLSYDMLYVKLT yielded an amyloid nucleation score of 2.44 ± 0.16.
With YKLRFNILASMDNRMKLKWL the amyloid nucleation score was -0.899 ± 0.81.
QFSHNRIMLDQTWKNVVKGL showed an amyloid nucleation score of -0.001 ± 0.37.
Work on IGDTI yielded an amyloid nucleation score of 0.302 ± 0.33.
For IWVSLDYMKSGNGNFTDSFC, the amyloid nucleation score was 2.82 ± 0.12.
RVMFACF gave an amyloid nucleation score of 0.15 ± 0.37.
For RDSLSSVSA, the amyloid nucleation score was -0.382 ± 0.62.
Substance ICDRAWRCFKTKSTQPVTVS has an amyloid nucleation score of -0.19 ± 0.36.
For KHCDYHRWVEITSKRLFIGG, the amyloid nucleation score was 0.134 ± 0.3.
In the case of PSLLWAFTLS, the amyloid nucleation score is reported as 0.5 ± 0.42.
For VPCMWRFTHVSKYEGKSRTL, the amyloid nucleation score was -0.452 ± 0.42.
With SHRSFFCSSLWMNYYCLISS the amyloid nucleation score was “inactive”.
CTFSSWRESGFWTSLIHGYL gave an amyloid nucleation score of -0.218 ± 0.36.
Work on PKNKAAVKNSMALPIARQ yielded an amyloid nucleation score of -0.192 ± 0.73.
Work on LVTRGFEVRGDHQVIKYFLA yielded an amyloid nucleation score of -0.6 ± 0.49.
For KMQPQMTCFS, the amyloid nucleation score was -0.435 ± 0.53.
With SIRSFMIVL the amyloid nucleation score was 3.49 ± 0.13.
In the case of DSEKGSVLYLVMRGMNCVSI, the amyloid nucleation score is reported as 4.69 ± 0.052.
TCCNDDKRYIWCIYSRAKMN showed an amyloid nucleation score of -1.55 ± 0.42.
FNYVICYSLCVVFWARRWCN gave an amyloid nucleation score of 1.75 ± 0.14.
With RHVSPFNSS the amyloid nucleation score was -0.222 ± 0.31.
Work on QGHCGTYHSGGSVNRLPHGV yielded an amyloid nucleation score of 0.209 ± 0.39.
PKATRIALPFFLGLCFSMCL gave an amyloid nucleation score of -0.143 ± 0.38.
Substance LVISSRREKR has an amyloid nucleation score of 0.009 ± 0.57.
PTVYSDYTCSTFMWISD gave an amyloid nucleation score of 0.299 ± 0.6.
For KQYPI, the amyloid nucleation score was -1.33 ± 2.4.
Substance QKKSLVRGKGES has an amyloid nucleation score of -0.145 ± 0.48.
In the case of DWVWWRTPSELVVYGADNWR, the amyloid nucleation score is reported as -0.328 ± 0.84.
In the case of SFKWVVRVWRCRILWNSGVS, the amyloid nucleation score is reported as 0.001 ± 0.78.
With VARFCNGYTHNIAMCTGIQR the amyloid nucleation score was -2.44 ± 2.4.
For NMRTNNVGVGLPSFMHNSSF, the amyloid nucleation score was “inactive”.
With NFICLHQNNMLISPKGTATR the amyloid nucleation score was 0.672 ± 0.31.
With EFVGVGNIVPFTTSWLIMGR the amyloid nucleation score was 0.271 ± 0.2.
In the case of AVYDLCD, the amyloid nucleation score is reported as 0.816 ± 0.74.
NCMKLLEQRGGCLQANGF gave an amyloid nucleation score of 2.09 ± 0.15.
YHVRVKYFPWNGTNVTVLDS gave an amyloid nucleation score of -0.73 ± 0.32.
In the case of LRVMKKRLVDATHNFVPVAN, the amyloid nucleation score is reported as 4.33 ± 0.075.
Work on HVMTFEVSFRTGCKDVINWV yielded an amyloid nucleation score of 1.03 ± 0.18.
TSHSETSEAFRRFSAPFLAN gave an amyloid nucleation score of 0.497 ± 0.64.
NMRVFWSARRQALFQWRIL showed an amyloid nucleation score of 0.807 ± 0.71.
In the case of YEKMTRFNVGKCHMVHFSLP, the amyloid nucleation score is reported as -0.376 ± 1.4.
Work on FLCEAFDQGNLVIIDP yielded an amyloid nucleation score of -0.502 ± 0.46.
Substance KSGSKCRLRGSDNSNRLSVM has an amyloid nucleation score of -0.335 ± 1.5.
ESTLNRVRVTALETVQQCLS showed an amyloid nucleation score of 0.275 ± 1.2.
Substance ALPIMKLMACVCGQKGMTYA has an amyloid nucleation score of -0.047 ± 0.69.
With IYACTYY the amyloid nucleation score was 0.184 ± 0.45.
With VPVVDNIVSIL the amyloid nucleation score was -0.718 ± 1.7.
FFAHNRTMSRRNQAFGF gave an amyloid nucleation score of 0.86 ± 1.1.
